B1: FOXJ1 (parent)
chain: SAIYKWITDNFCYFRHADPTWQNS
B2: SMOC2 (parent)
chain: QKPLCASDGRTFLSRCEFQRAKCK

Variants of: B1
Assay: protein stability index of a GFP-peptide fusion (GPS, HEK-293T) (PSI 1-6); higher = more stable
Conditions: c terminus: a fixed tail appended
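Note: lentivirally expressed fusions sorted by FACS into six bins by GFP to DsRed ratio, PSI derived from sequencing read proportions per bin multiplied by bin number.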

Variant | protein stability index
SAIYKWITDNFCYFRHADPTWQNW [S24W] | 2.37
SAIYKWITDNFCYFRHADPTWQNT [S24T] | 2.96
SAIYKWITDNFCYFRHADPTHQNS [W21H] | 2.11
SAIYKWITDNFCYFRHADPTRQNS [W21R] | 2.27
SAIYKWITDNFCYFRHADPTFQNS [W21F] | 1.85
SAIYKWITDNFCYFRHADPTIQNS [W21I] | 3.5
SAIYKWITDNFCYFRHADPTAQNS [W21A] | 3.28
SAIYKWITDNFCYFRHADPTGQNS [W21G] | 2.24
SAIYKWITDNFCYFRHADPTTQNS [W21T] | 4.47
SAIYKWITDNFCYFRHADPTPQNS [W21P] | 1.99
SAIYKWITDNFCYFRHADPTWHNS [Q22H] | 3.75
SAIYKWITDNFCYFRHADPTWSNS [Q22S] | 4.33
SAIYKWITDNFCYFRHADPTWGNS [Q22G] | 2.93
SAIYKWITDNFCYFRHADPTWFNS [Q22F] | 3.37
SAIYKWITDNFCYFRHADPTWMNS [Q22M] | 3.06
SAIYKWITDNFCYFRHADPTWWNS [Q22W] | 1.86
SAIYKWITMNFCYFRHADPTWQNS [D9M] | 3.64
SAIYKWITHNFCYFRHADPTWQNS [D9H] | 4.47
SAIYKWITGNFCYFRHADPTWQNS [D9G] | 3.51
SAIYKWITYNFCYFRHADPTWQNS [D9Y] | 2.56
SAIYKWITRNFCYFRHADPTWQNS [D9R] | 3.41

Variants of: B2
Assay: as above
Conditions: c terminus: a fixed tail appended

Variant | protein stability index
QKPLCASDGGTFLSRCEFQRAKCK [R10G] | 3.17
QKPLCASDGYTFLSRCEFQRAKCK [R10Y] | 2.91
QKPLCASDGKTFLSRCEFQRAKCK [R10K] | 2.96
QKPLCASDGRTFLSRCEFQRASCK [K22S] | 3.06
QKPLCASDGRTFLSRCEFQRAWCK [K22W] | 2.86
QKPLCASDGRTFLSRCEFQRACCK [K22C] | 2.72
QKPLCASDGRTFLSRCEFQRAHCK [K22H] | 2.31
QKPLCASDGRTFLSRCEFQRAVCK [K22V] | 2.86
QKPLCASDGRTFLSRCEFQRAACK [K22A] | 3.02
QPPLCASDGRTFLSRCEFQRAKCK [K2P] | 3.18
QKPLHASDGRTFLSRCEFQRAKCK [C5H] | 2.7
QKPLCASDYRTFLSRCEFQRAKCK [G9Y] | 1.9
QKPLCASDRRTFLSRCEFQRAKCK [G9R] | 2.94
QKPLCASDTRTFLSRCEFQRAKCK [G9T] | 2.67
QKPLCASDSRTFLSRCEFQRAKCK [G9S] | 3.42
QKPLCASDQRTFLSRCEFQRAKCK [G9Q] | 2.64
QKPLCASDARTFLSRCEFQRAKCK [G9A] | 2.58
QKMLCASDGRTFLSRCEFQRAKCK [P3M] | 3.12
QKCLCASDGRTFLSRCEFQRAKCK [P3C] | 2.39
QKWLCASDGRTFLSRCEFQRAKCK [P3W] | 1.53
QKILCASDGRTFLSRCEFQRAKCK [P3I] | 2.16
QKRLCASDGRTFLSRCEFQRAKCK [P3R] | 3.19
TKPLCASDGRTFLSRCEFQRAKCK [Q1T] | 3.41
DKPLCASDGRTFLSRCEFQRAKCK [Q1D] | 2.68
SKPLCASDGRTFLSRCEFQRAKCK [Q1S] | 2.68

Variant | protein stability index
QKPMCASDGRTFLSRCEFQRAKCK [L4M] | 2.29
QKPSCASDGRTFLSRCEFQRAKCK [L4S] | 3.35
QKPHCASDGRTFLSRCEFQRAKCK [L4H] | 2.59
QKPFCASDGRTFLSRCEFQRAKCK [L4F] | 2.18
QKPWCASDGRTFLSRCEFQRAKCK [L4W] | 2.51
QKPLCAADGRTFLSRCEFQRAKCK [S7A] | 2.33
QKPLCAKDGRTFLSRCEFQRAKCK [S7K] | 3.32
QKPLCASDGRTFLSTCEFQRAKCK [R15T] | 4.28
QKPLCASDGRTFLSSCEFQRAKCK [R15S] | 3.41
QKPLCASDGRYFLSRCEFQRAKCK [T11Y] | 2.03
QKPLCASDGRDFLSRCEFQRAKCK [T11D] | 3.33
QKPLCASDGRLFLSRCEFQRAKCK [T11L] | 2.68
QKPLCASDGRNFLSRCEFQRAKCK [T11N] | 3.06
QKPLCASDGRTFLSRCGFQRAKCK [E17G] | 2.26
QKPLCASDGRTFLSRCCFQRAKCK [E17C] | 2.74
QKPLCASDGRTFLSRCIFQRAKCK [E17I] | 3.15
QKPLCASDGRTFLSRCFFQRAKCK [E17F] | 2.32
QKPLCASEGRTFLSRCEFQRAKCK [D8E] | 3.66
QKPLCASIGRTFLSRCEFQRAKCK [D8I] | 2.35
QKPLCASDGRTFNSRCEFQRAKCK [L13N] | 3.78
QKPLCASDGRTFVSRCEFQRAKCK [L13V] | 2.29
QKPLCASDGRTFQSRCEFQRAKCK [L13Q] | 3.4
QKPLCASDGRTFPSRCEFQRAKCK [L13P] | 3.56
QKPLCASDGRTFLSRCEFQRAKWK [C23W] | 2.34
QKPLCASDGRTFLSRCEFQRAKKK [C23K] | 4.07

Variant | protein stability index
QKPLCASDGRTFLSRCEDQRAKCK [F18D] | 4.12
QKPLCASDGRTFLSRCEEQRAKCK [F18E] | 4.73
QKPLCASDGRTFLSRCECQRAKCK [F18C] | 3.56
QKPLCASDGRTFLNRCEFQRAKCK [S14N] | 3.47
QKPLCASDGRTFLTRCEFQRAKCK [S14T] | 3.4
QKPLCASDGRTFLSRCEFQRAKCV [K24V] | 2.62
QKPLCASDGRTFLSRCEFQRAKCR [K24R] | 1.74
QKPLCASDGRTFLSRCEFQRAKCW [K24W] | 2.36
QKPLCASDGRTFLSRCEFQRAKCA [K24A] | 3
QKPLCASDGRTFLSRCEFQRAKCE [K24E] | 3.19
QKPLCASDGRTFLSRGEFQRAKCK [C16G] | 4.3
QKPLCASDGRTFLSRCEFVRAKCK [Q19V] | 2.71
QKPLCASDGRTFLSRCEFERAKCK [Q19E] | 3.48
QKPLCASDGRTFLSRCEFQRDKCK [A21D] | 3.17
QKPLCASDGRTFLSRCEFQRCKCK [A21C] | 3.48
QKPLCFSDGRTFLSRCEFQRAKCK [A6F] | 1.89
QKPLCGSDGRTFLSRCEFQRAKCK [A6G] | 2.38
QKPLCKSDGRTFLSRCEFQRAKCK [A6K] | 2.82
QKPLCASDGRTHLSRCEFQRAKCK [F12H] | 4.22
QKPLCASDGRTDLSRCEFQRAKCK [F12D] | 4.57
QKPLCASDGRTQLSRCEFQRAKCK [F12Q] | 4.5
QKPLCASDGRTNLSRCEFQRAKCK [F12N] | 3.96
QKPLCASDGRTFLSRCEFQAAKCK [R20A] | 3.14

From the supplement of paper PMC10567573
